{"source": "paper PMC10855774", "about": "“Role of Spexin in White Adipose Tissue Thermogenesis under Basal and Cold-Stimulated Conditions” (International Journal of Molecular Sciences, 2024)", "molecules": {"B1": {"name": "Spexin (peptide, UniProt Q9BT56 27-116, looked up)", "Spexin": "APQRLLERRNWTPQAMLYLKGAQGRRFISDQSRRKDLSDRPLPERRSPNPQLLTIPEAATILLASLQKSPEDEEKNFDQTRFLEDSLLNW", "modifications": "Spexin", "notes": "novel adipokine, a peptide of 14 amino acids of the galanin family; purchased from Tocris"}}, "key": {"[1]": {"experiment": "Plasma glucose and triglyceride levels (commercial kits)", "format": "in vivo, mice", "conditions": "SPX 29 µg/kg/day ten days, RT or cold; non-fasting; n = 6–7", "procedure": "Normal adult male C57BL/6 mice (four months of age) were kept in a temperature-controlled environment (20–22 °C and a fixed 12 h light/12 h dark cycle; lights on at 07:00 h) and fed ad libitum with Purina commercial rat/mouse chow (Ganave, Buenos Aires, Argentina, L0723/1). Mice were injected with SPX or PBS (29 µg/kg/day, Tocris, Bristol, UK) for ten days (the SPX and CTR groups, respectively). On the third day of the protocol, each group was subdivided into two other groups: one exposed to cold (4 °C, CTR-C and SPX-C, n = 12 mice for each group) and another one housed at RT (CTR and SPX, n = 15 mice for each group) (Figure 1). Food intake and body weight were measured every day. On the experimental day (day 10), the mice were euthanized under non-fasting conditions (08:00 to 09:00 h), and their trunk blood was collected; plasma samples were then frozen (–80 °C) until the metabolite measurement. Inguinal AT (IAT, subcutaneous depot), epididymal AT (EAT, visceral depot), and brown AT (BAT, subcutaneous depot) were aseptically dissected and weighed. These depots were kept at –80 °C for further procedures. […]\nCirculating glucose (Glu) and triglyceride (Tg) levels were measured using commercial kits (Wiener Lab., Rosario, Argentina). Plasma SPX was measured using a commercial ELISA kit (SPX: Phoenix pharmaceutical EK-023-81)."}, "[2]": {"experiment": "Liver Tg content", "format": "in vivo, mice", "conditions": "SPX 29 µg/kg/day ten days", "procedure": "Liver tissue (50 mg) was homogenized in a 5% solution of 500 µL Triton X-100 in PBS. The homogenate was incubated at 80–100 °C for 5 min and centrifuged at 10,000× g for 10 min. The Tg levels were measured in the supernatants using a commercial kit (Wiener Lab., Rosario, Argentina)."}, "[3]": {"system": "ucp1", "experiment": "ucp1 mRNA expression in AT depots (qRT-PCR)", "format": "in vivo, mice", "procedure": "(§1) Normal adult male C57BL/6 mice (four months of age) were kept in a temperature-controlled environment (20–22 °C and a fixed 12 h light/12 h dark cycle; lights on at 07:00 h) and fed ad libitum with Purina commercial rat/mouse chow (Ganave, Buenos Aires, Argentina, L0723/1). Mice were injected with SPX or PBS (29 µg/kg/day, Tocris, Bristol, UK) for ten days (the SPX and CTR groups, respectively). On the third day of the protocol, each group was subdivided into two other groups: one exposed to cold (4 °C, CTR-C and SPX-C, n = 12 mice for each group) and another one housed at RT (CTR and SPX, n = 15 mice for each group) (Figure 1). Food intake and body weight were measured every day. On the experimental day (day 10), the mice were euthanized under non-fasting conditions (08:00 to 09:00 h), and their trunk blood was collected; plasma samples were then frozen (–80 °C) until the metabolite measurement. Inguinal AT (IAT, subcutaneous depot), epididymal AT (EAT, visceral depot), and brown AT (BAT, subcutaneous depot) were aseptically dissected and weighed. These depots were kept at –80 °C for further procedures. Animals were euthanized according to protocols for animal use, in agreement with the NIH guidelines for the care and use of experimental animals. All experiments were approved by our Institutional Animal Care Committee (Approval code: 6NE-2023).\n(§2) Total RNA was isolated from cells by the Trizol extraction method (Invitrogen, Life Technology, Waltham, MA, USA) and reverse-transcribed using random primers (250 ng) and RevertAid Reverse Transcriptase (200 U/µL, Thermo Scientific, Waltham, MA, USA). The cDNA (2 μL) was amplified with HOT FIRE Pol EvaGreenqPCR Mix Plus (Solis BioDyne, Tartu, Estonia) containing 0.5 μM of each specific primer, using a Rotor-Gene Q (Qiagen, Hilden, Germany). PCR efficiency was near 1. The expression levels were analyzed for β-actin (βactin, […] gene), Uncoupling Protein 1 (ucp1), proliferator-activated receptor gamma coactivator-1 alpha (pgc1α), cytochrome-c oxidase subunit 8b (cox8b), galanin receptors 2 and 3 (galr2 and galr3, respectively), and Spexin (spx). The designed primers are shown in alphabetical order in Table 1. The relative changes in the expression level of each gene (ΔΔCt) were calculated by the ΔCt method."}, "[4]": {"system": "ucp1", "experiment": "UCP1 immunohistochemistry of EAT and IAT", "format": "in vivo, mice", "conditions": "SPX groups vs. CTR groups; representative of three experiments", "procedure": "as §1, with “6NE-2023). […]” for “6NE-2023).”"}, "[5]": {"system": "pgc1α", "experiment": "pgc1α mRNA expression in AT depots (qRT-PCR)", "format": "in vivo, mice", "procedure": "as §1\nas §2, with “The cDNA (2 μL) was amplified with HOT FIRE Pol EvaGreenqPCR Mix Plus (Solis BioDyne, Tartu, Estonia) containing 0.5 μM of each specific primer, using a Rotor-Gene Q (Qiagen, Hilden, Germany). PCR efficiency was near 1.” left out, “The designed primers are shown in alphabetical order in Table 1.” left out"}, "[6]": {"system": "cox8b", "experiment": "cox8b mRNA expression in AT depots (qRT-PCR)", "format": "in vivo, mice", "conditions": "cold, SPX-C vs. CTR-C, C × S p < 0.001", "procedure": "as §1\nas §2, with “The cDNA (2 μL) was amplified with HOT FIRE Pol EvaGreenqPCR Mix Plus (Solis BioDyne, Tartu, Estonia) containing 0.5 μM of each specific primer, using a Rotor-Gene Q (Qiagen, Hilden, Germany). PCR efficiency was near 1.” left out, “The designed primers are shown in alphabetical order in Table 1.” left out"}, "[7]": {"system": "spx", "experiment": "spx mRNA expression in AT depots (qRT-PCR)", "format": "in vivo, mice", "procedure": "as §1\nas §2, with “The cDNA (2 μL) was amplified with HOT FIRE Pol EvaGreenqPCR Mix Plus (Solis BioDyne, Tartu, Estonia) containing 0.5 μM of each specific primer, using a Rotor-Gene Q (Qiagen, Hilden, Germany). PCR efficiency was near 1.” left out, “The designed primers are shown in alphabetical order in Table 1.” left out"}, "[8]": {"system": "3T3-L1 adipocytes", "conditions": "in vitro; cited from earlier work", "text": "(§3) Beige adipocytes may be generated through two different mechanisms: adipogenesis, de novo, from precursor stem cells, and the transdifferentiation process, which involves the conversion/reprogramming of white adipocytes. Regarding the former, different studies have shown the presence of different adipocyte precursors that have different thermogenic capacities when differentiated in vitro [22]. Other studies have observed that PDGFRα+ cells are bipotential precursors, being able to differentiate into either white or beige adipocytes depending on the stimulus. Then, only PDGFRα+ and EBF2+ cell ..."}, "[9]": {"system": "preadipocytes", "conditions": "cited from earlier work", "text": "as §3"}, "[10]": {"conditions": "cold-stimulated conditions (7 days 4 °C), SPX-C vs. CTR-C p < 0.0001"}}}
{"molecule": "B1", "values": [{"measurement": "plasma Tg levels", "setting": "[1]", "result": "did not change"}, {"measurement": "plasma glucose levels", "setting": "[1]", "result": "did not change"}, {"measurement": "liver Tg content, SPX-C vs. CTR-C", "setting": "[2]; cold (4 °C), C × S p < 0.001, p < 0.001 vs. CTR-C", "result": "CTR-C mice had higher Tg levels than CTR (p < 0.01) and SPX-C (p < 0.001) mice"}, {"measurement": "liver Tg content, SPX-C vs. SPX", "setting": "[2]; cold vs. RT", "result": "lower Tg levels than SPX mice"}, {"measurement": "ucp1 mRNA expression in BAT", "setting": "[3]; RT and cold, C p < 0.001, Supplementary Figure S2a", "result": "increased under cold exposure despite the SPX treatment"}, {"measurement": "ucp1 mRNA expression in IAT and EAT", "setting": "[3]; RT, SPX vs. CTR", "result": "SPX inhibition was also significant, but only when a t-test was performed"}, {"measurement": "ucp1 mRNA expression in EAT", "setting": "[3]; [10]", "result": "ucp1 inhibition"}, {"measurement": "ucp1 mRNA expression in IAT", "setting": "[3]; [10]", "result": "ucp1 inhibition"}, {"measurement": "UCP1 expression by immunohistochemistry, EAT and IAT", "setting": "[4]", "result": "lower than in the CTR groups"}, {"measurement": "pgc1α mRNA expression in BAT", "setting": "[5]; RT and cold, Supplementary Figure S2b", "result": "no changes were observed"}, {"measurement": "pgc1α mRNA expression in EAT", "setting": "[5]; cold conditions, C p < 0.0001", "result": "increased in EAT for both the control and treated groups"}, {"measurement": "pgc1α mRNA expression in IAT", "setting": "[5]; cold, SPX-C vs. CTR-C, p < 0.001", "result": "inhibited due to SPX in cold conditions"}, {"measurement": "cox8b mRNA expression in EAT", "setting": "[6]", "result": "inhibitory effect of SPX under cold conditions"}, {"measurement": "cox8b mRNA expression in IAT", "setting": "[6]", "result": "inhibitory effect of SPX under cold conditions"}, {"measurement": "cox8b mRNA expression in BAT", "setting": "[6]; Supplementary Figure S2c", "result": "inhibitory effect of SPX under cold conditions"}, {"measurement": "spx mRNA expression in EAT", "setting": "[7]; RT and cold", "result": "No changes"}, {"measurement": "spx mRNA expression in BAT", "setting": "[7]; RT and cold, Supplementary Figure S3", "result": "No changes"}, {"measurement": "spx mRNA expression in IAT", "setting": "[7]; cold conditions, C × S p < 0.001", "result": "lower spx expression than CTR mice"}, {"measurement": "terminal differentiation of white 3T3-L1 adipocytes", "setting": "[8]", "result": "inhibits"}, {"measurement": "viability or proliferation of preadipocytes", "setting": "[9]", "result": "does not affect"}]}
